Measured values published in article PMC4317013 (The Journal of Biological Chemistry, 2014).

Experiments:
testisin [1] = molecular target: T1, testisin (Mus musculus, UniProt Q9JHJ7); assay: Cleavage by and complex formation with testisin in solution (SDS-PAGE, Western blotting, Edman degradation); format: biochemical; conditions: for N-terminal testisin cleavage site: Edman degradation of testisin-cleaved protein, Fig. 1D
T1 construct: purchased R&D Systems
Procedure: Activation of protestisin and testisin (R&D Systems, Minneapolis, MN) activity assays were performed according to the instructions of the supplier. Inhibition of testisin by PCI was tested on 96-well F16 Black MaxiSorp plates (Nunc, Roskilde, Denmark). 20 nM testisin was incubated with 200 or 1000 nM (final concentration) rhPCI or rmPCI in the absence or presence of 5 units/ml heparin in 100 μl of testisin buffer (50 mM Tris, 150 mM NaCl, 10 mM CaCl2, pH 7.5). After a 30-min incubation at 37 °C, 100 μl of 0.2 mM fluorogenic substrate I-1295 (Bachem, Bubendorf, Switzerland) dissolved in testisin buffer was added to each well. Plates were read every 15 s at an excitation wavelength of 380 nm and an emission wavelength of 460 nm using a Synergy H4 microplate reader (BioTek, Seattle, WA). The 5-min time point was used to calculate the relative activity. The amidolytic activity of testisin in the absence of PCI was assigned to 1, and for each reaction, the remaining testisin activity was calculated. To detect the possible complex formation between PCI and testisin, different concentrations (7.5–960 nM) of rhPCI or rmPCI, respectively, were incubated with 30 nM testisin for varying times (0–40 min) at 37 °C. The reactions were stopped by adding an equal volume of 2× Laemmli buffer containing 5% 2-mercaptoethanol ([40]). Samples were heated at 99 °C for 5 min followed by sodium dodecyl sulfate-polyacrylamide electrophoresis (SDS-PAGE) and Western blotting. To determine the testisin cleavage sites in human and mouse PCI, WT PCI or PCI mutants (rhPCI, hPCI-R11G, hPCI-R354G, rmPCI, mPCI-A18G, or mPCI-R352G, respectively; 300 nM each) were incubated with 30 nM testisin for 1 h at 37 °C. […]
SDS-PAGE was performed according to the method of Laemmli ([40]) using 10% acrylamide gels. […] The signal was detected using SuperSignal West Femto or SuperSignal West Pico chemiluminescent substrate (Thermo Fisher Scientific, Rockford, IL) with a FluorChem HD2 imaging system (ProteinSimple, Santa Clara, CA). […]

Jurkat T cells [2] = test system: Jurkat T cells
Procedure: For the internalization experiment, cells were seeded at 1 × 10^6 cells/ml with 8 ml of full medium into 75-cm^2 flasks and treated with respective 200 nM proteins for 2 h or 5 μM peptides for 1 h.
Human A+-helix peptide ([…]; corresponding to the cleaved N-terminal peptide of hPCI), mouse A+-helix peptide ([…]; corresponding to the cleaved N-terminal peptide of mPCI), and TAT peptide ([…]) ([42]) were synthesized and labeled with FITC (GenScript, Piscataway, NJ). […] Fluorescence-activated cell sorting (FACS) analysis was performed with a FACSCalibur flow cytometer (BD Biosciences). Further data analysis was done with Flowing Software ([43]). For confocal microscopy, the fixed cells were suspended with Vectashield mounting medium containing […] DAPI (Vector Laboratories, Burlingame, CA) and transferred onto slides. Confocal images were taken by a Zeiss LSM-510 Meta confocal microscope system (Zeiss, Jena, Germany). Zeiss LSM Image Browser software was applied for further analysis of images.

testisin [3] = assay: 30 nM testisin in testisin buffer (50 mM Tris, 150 mM NaCl, 10 mM CaCl2, pH 7.5); conditions: 37 °C, up to 120 min
Jurkat T cells [4] = assay: Internalization of PCI forms by Jurkat T cells (cell lysis, subcellular fractionation, Western blotting); format: cell-based, human; conditions: 200 nM protein, 2 h, 37 °C, Western blotting with anti-mPCI IgG; for internalization by Jurkat T cells (whole cell lysate and subcellular fractions): full medium, Fig. 3
Procedure: SDS-PAGE was performed according to the method of Laemmli ([40]) using 10% acrylamide gels. Following electrophoresis, the proteins were transferred onto PVDF membranes. The membranes were blocked with blotting buffer (5% skim milk powder and 0.05% Tween 20 in PBS, pH 7.4) for 1 h at room temperature. Rabbit anti-mPCI IgG (diluted 1:1000; homemade), rabbit anti-hPCI IgG (diluted 1:1000; homemade), monoclonal mouse anti-penta-His IgG (diluted 1:500; Qiagen, Hilden, Germany), rabbit anti-testisin IgG (diluted 1:500; Abgent, San Diego, CA), mouse monoclonal anti-A1AT(diluted 1:2000; Fisher Scientific GmbH), rabbit anti-actin IgG (diluted 1:2000; Sigma-Aldrich), monoclonal mouse anti-lamin B2 IgG (diluted 1:2000; Abcam, Cambridge, UK), and monoclonal mouse anti-Hsp 90 IgG (diluted 1:2000; Exbio, Prague, Czech) were used, respectively, in blotting buffer. The respective secondary antibodies were horseradish peroxidase-conjugated donkey anti-rabbit IgG (diluted 1:5000; GE Healthcare Handels GmbH) and horseradish peroxidase-conjugated sheep anti-mouse IgG (diluted 1:5000; GE Healthcare Handels GmbH). The signal was detected using SuperSignal West Femto or SuperSignal West Pico chemiluminescent substrate (Thermo Fisher Scientific, Rockford, IL) with a FluorChem HD2 imaging system (ProteinSimple, Santa Clara, CA).
Jurkat T cells were incubated in full medium with 200 nM rmPCI, testisin-cleaved rmPCI, or ΔR1-A18 mPCI, respectively, at 37 °C for 2 h. 1 × 10^7 cells were harvested and washed three times with PBS. To prepare whole cell lysates, cell pellets were resuspended and incubated in CelLytic M cell lysis buffer at room temperature for 10 min and applied to electrophoresis. Subcellular fractions were prepared as described previously ([41]) with some modifications. In brief, cell pellets were resuspended in 125 μl of buffer A (10 mM Hepes, pH 7.9, 10 mM KCl, 1.5 mM MgCl2, 0.34 M sucrose, 10% glycerol, 1 mM DTT, 0.1% Triton X-100) containing 10 μl of protease inhibitor mixture P8340 (Sigma-Aldrich) and incubated for 8 min. […]

Urokinase = Urokinase (Homo sapiens, UniProt P00749); assay: Interaction of PCI with other proteases: urokinase; format: biochemical; conditions: 300 nM rmPCI, 30 nM protease, 37 °C, Fig. 1F
Procedure: (§1) Urokinase, aPC, thrombin, or enteropeptidase (30 nM each) was incubated with 300 nM rmPCI, respectively, for different periods (10 or 120 min) at 37 °C. The reactions were stopped by adding an equal volume of 2× Laemmli buffer containing 5% 2-mercaptoethanol ([40]). Samples were heated at 99 °C for 5 min followed by SDS-PAGE and Western blotting.
(§2) SDS-PAGE was performed according to the method of Laemmli ([40]) using 10% acrylamide gels. Following electrophoresis, the proteins were transferred onto PVDF membranes. The membranes were blocked with blotting buffer (5% skim milk powder and 0.05% Tween 20 in PBS, pH 7.4) for 1 h at room temperature. […] The signal was detected using SuperSignal West Femto or SuperSignal West Pico chemiluminescent substrate (Thermo Fisher Scientific, Rockford, IL) with a FluorChem HD2 imaging system (ProteinSimple, Santa Clara, CA).

aPC = aPC (Homo sapiens, UniProt P04070); assay: Interaction of PCI with other proteases: aPC; format: biochemical; conditions: 300 nM rmPCI, 30 nM protease, 37 °C, Fig. 1F
aPC, sequence (P04070 212-461 limits assumed): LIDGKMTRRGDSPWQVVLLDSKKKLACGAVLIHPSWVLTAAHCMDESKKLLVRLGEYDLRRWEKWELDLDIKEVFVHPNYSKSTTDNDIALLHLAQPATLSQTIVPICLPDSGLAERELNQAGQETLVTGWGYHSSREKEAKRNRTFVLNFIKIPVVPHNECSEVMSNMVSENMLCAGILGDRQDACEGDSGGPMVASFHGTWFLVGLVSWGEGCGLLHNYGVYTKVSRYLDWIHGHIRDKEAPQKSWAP
aPC, sequence (P04070 43-197 partner limits assumed): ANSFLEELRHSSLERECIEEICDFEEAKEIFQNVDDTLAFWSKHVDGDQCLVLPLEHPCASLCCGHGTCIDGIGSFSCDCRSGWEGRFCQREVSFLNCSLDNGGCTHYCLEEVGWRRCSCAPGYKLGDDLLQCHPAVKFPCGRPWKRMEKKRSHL
Procedure: as §1, §2

enteropeptidase = enteropeptidase (Homo sapiens, UniProt P98073); assay: Interaction of PCI with other proteases: enteropeptidase; format: biochemical; conditions: 300 nM rmPCI, 30 nM protease, 37 °C, Fig. 1F
enteropeptidase, sequence (P98073 whole entry, species assumed): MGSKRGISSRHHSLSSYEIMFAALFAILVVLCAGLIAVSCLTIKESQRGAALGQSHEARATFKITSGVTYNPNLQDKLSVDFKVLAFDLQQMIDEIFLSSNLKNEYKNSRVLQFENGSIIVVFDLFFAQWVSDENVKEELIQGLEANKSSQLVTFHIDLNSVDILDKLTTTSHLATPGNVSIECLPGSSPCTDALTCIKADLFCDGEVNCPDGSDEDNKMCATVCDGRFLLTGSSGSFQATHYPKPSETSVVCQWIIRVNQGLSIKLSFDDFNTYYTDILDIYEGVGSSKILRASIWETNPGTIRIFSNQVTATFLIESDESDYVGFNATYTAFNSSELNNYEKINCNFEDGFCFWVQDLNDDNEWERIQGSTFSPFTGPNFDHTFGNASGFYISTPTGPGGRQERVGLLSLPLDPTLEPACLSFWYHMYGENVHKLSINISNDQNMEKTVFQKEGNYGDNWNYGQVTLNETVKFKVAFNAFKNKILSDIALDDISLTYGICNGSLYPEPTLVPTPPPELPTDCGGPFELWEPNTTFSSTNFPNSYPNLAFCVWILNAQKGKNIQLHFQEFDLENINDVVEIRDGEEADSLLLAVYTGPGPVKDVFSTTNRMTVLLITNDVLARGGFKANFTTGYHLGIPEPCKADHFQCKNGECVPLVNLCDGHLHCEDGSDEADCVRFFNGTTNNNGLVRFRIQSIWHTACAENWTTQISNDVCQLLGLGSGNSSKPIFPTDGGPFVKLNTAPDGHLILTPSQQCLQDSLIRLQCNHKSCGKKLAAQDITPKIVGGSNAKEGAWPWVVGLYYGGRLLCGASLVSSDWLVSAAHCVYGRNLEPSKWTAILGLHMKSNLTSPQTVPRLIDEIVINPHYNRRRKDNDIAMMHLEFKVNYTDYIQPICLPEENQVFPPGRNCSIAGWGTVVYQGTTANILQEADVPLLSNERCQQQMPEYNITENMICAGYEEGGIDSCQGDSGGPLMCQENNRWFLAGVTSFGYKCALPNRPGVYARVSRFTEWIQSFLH
Procedure: as §1, §2

T1 sequence (Q9JHJ7 55-298 limits assumed): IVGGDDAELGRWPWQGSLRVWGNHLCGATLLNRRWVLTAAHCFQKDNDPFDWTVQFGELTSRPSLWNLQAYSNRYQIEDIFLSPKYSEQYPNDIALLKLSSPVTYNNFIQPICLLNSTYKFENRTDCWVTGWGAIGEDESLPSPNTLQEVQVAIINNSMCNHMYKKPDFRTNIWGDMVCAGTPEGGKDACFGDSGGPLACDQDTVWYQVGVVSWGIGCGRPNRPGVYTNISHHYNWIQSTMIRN

A1AT: serum-derived human α1-antitrypsin (Sigma-Aldrich), another serpin [reference compound]
cleavage by testisin (Western blotting) (testisin [1]; 300 nM protein, 30 nM testisin, 0–40 min, 37 °C, testisin buffer, Fig. 1A, B): Neither cleavage

HRHHPREMKKR [human A+-helix-FITC]
intracellular localization (confocal microscopy) (Jurkat T cells [2]): cytosolic and nuclear localization

HRHHPREMKKRVEDLHVGATV...
cleaved bond (testisin [3]): Arg11-Val12

RRHSHSKKKKAKESSVGA [mouse A+-helix-FITC]
intracellular localization (confocal microscopy) (Jurkat T cells [2]): cytosolic and nuclear localization

B1: rhPCI: recombinant human protein C inhibitor with N-terminal His tag (protein, UniProt P05154 26-406, looked up)
Plasma serine protease …: EMKKRVEDLHVGATVAPSSRRDFTFDLYRALASAAPSQSIFFSPVSISMSLAMLSLGAGSSTKMQILEGLGLNLQKSSEKELHRGFQQLLQELNQPRDGFQLSLGNALFTDLVVDLQDTFVSAMKTLYLADTFPTNFRDSAGAMKQINDYVAKQTKGKIVDLLKNLDSNAVVIMVNYIFFKAKWETSFNHKGTQEQDFYVTSETVVRVPMMSREDQYHYLLDRNLSCRVVGVPYQGNATALFILPSEGKMQQVENGLSEKTLRKWLKMFKKRQLELYLPKFSIEGSYQLEKVLPSLGISNVFTSHADLSGISNHSNIQVSEMVHKAVVEVDESGTRAAAATGTIFTFRSARLNSQRLVFNRPFLMFIVDNNILFLGKVNRP
modifications: N-terminal His tag
N-terminal testisin cleavage site (testisin [1]): between Arg^11 and Val^12

B2: rmPCI: recombinant mouse protein C inhibitor with N-terminal His tag (protein, UniProt P70458 25-405, looked up)
Plasma serine protease …: SKKKKAKESSVGAVGPPSSKDFAFRLYRALVSESPGQNVFFSPLSVSMSLGMLSLGAGLKTKTQILDGLGLSLQQGQEDKLHKGFQQLLQRFRQPSDGLQLSLGSALFKDPAVHIRDDFLSAMKTLYMSDTFSTNFGNPEIAKKQINNYVAKQTKGKIVDFIKDLDSTHVMIVVNYIFFKAKWQTAFSETNTHKMDFHVTPKRTTQVPMMNREDGYSYYLDQNISCTVVGIPYQGNAIALFILPSEGKMKQVEDGLDERTLRNWLKMFTKRRLDLYLPKFSIEATYKLENVLPKLGIQDVFTTHADLSGITDHTNIKLSEMVHKSMMEVEESGTTAAAITGAIFTFRSARPSSLKIEFTRPFLLTLMEDSHILFVGKVTRP
modifications: N-terminal His tag
internalization by Jurkat T cells (whole cell lysate and subcellular fractions) (Jurkat T cells [4]): taken up by Jurkat T cells and translocated to the nucleus
detection in subcellular fractions of Jurkat T cells (Jurkat T cells [4]; Fig. 4D): detected in the nuclear envelope fraction
N-terminal testisin cleavage site (testisin [1]): between Ala^18 and Val^19
cleavage by urokinase (Urokinase; 10 or 120 min, anti-mPCI IgG): appearance of a cleaved PCI form
N-terminal cleavage by urokinase (Urokinase; 120 min, anti-penta-His IgG): do not cleave the N terminus
cleavage by aPC (aPC; 10 or 120 min, anti-mPCI IgG): appearance of a cleaved PCI form
N-terminal cleavage by aPC (aPC; 120 min, anti-penta-His IgG, N-terminally cleaved form in aPC-PCI complex not completely ruled out): do not cleave the N terminus
cleavage by enteropeptidase (enteropeptidase; 10 or 120 min, anti-mPCI IgG): appearance of a cleaved PCI form
N-terminal cleavage by enteropeptidase (enteropeptidase; 120 min, anti-penta-His IgG): do not cleave the N terminus

B3: rmPCI preincubated with U937 cells: rmPCI preincubated with testisin-expressing U937 cells (protein, UniProt P70458 25-405, looked up)
Plasma serine protease …: B2 Plasma serine protease …
modifications: preincubated with U937 cells
internalization by Jurkat T cells (whole cell lysate and subcellular fractions) (Jurkat T cells [4]): not detected inside Jurkat T cells
